Test results published in the supplement of paper PMC10126150.
± gives the standard deviation of the averaged measurements.

test system: ATP; test: switch fluorescence ratio, 500 uM ATP over buffer (Cy3 cluster intensity, sum of 5 cycles each) (fold (ratio)); higher = stronger signal-on switching upon ATP binding; sequences stand for … in TCGTCGGCAGCGTCAGATGTGTATAAGAGACAGTTTTTTTTTTTTTTTTTTTTTTTTT…TC; conditions: aptamer strand: ATP DNA aptamer (quencher-CACCTGGGGGAGTATTGCGGAGGAAGG + anchor), 100 nM annealed; ATP concentration: 500 uM
Method in brief: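 Imaging in selection buffer was followed by imaging after 15 min with 500 uM ATP at 22 °C, for Cy3-labelled switching-strand clusters annealed to 100 nM quencher-labelled ATP aptamer on a modified Illumina MiSeq flow-cell. Five of these buffer/ATP cycles ran, separated by NaOH stripping and re-annealing. The fluorescence ratio per cluster is summed target-cycle over summed buffer-cycle Cy3 intensity, averaged per switch-domain sequence; clusters outside 100-1000 RFU were removed.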
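Further: ATP exposure 15 min at 22 °C before imaging.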

Point of comparison: AACCTTTCTG, switch fluorescence ratio 1.5 ± 0.021. Against it:
- AACCACTGGG — lower, 1.17 ± 0.13
- AACCAGCACC — lower, 1.0991 ± 0.00048
- AACCATACGT — lower, 1.29 ± 0.032
- AACCCGCACC — higher, 2.75 ± 0.12
- AACCCGCCTT — lower, 1.07 ± 0.067
- AACCGAAGAC — higher, 2.15 ± 0.075
- AACCGGGGGG — lower, 0.994 ± 0.045
- AACCGGTATT — lower, 0.9752 ± 0.0059
- AACCTATGCT — lower, 1.012 ± 0.0018
- AACCTCATGC — lower, 1.17 ± 0.086
- AACCTCGTCT — lower, 1.07 ± 0.039
- AACCTCTATT — lower, 1.03 ± 0.015
- AACCTGCGGA — lower, 1.02 ± 0.011
- AACCTGGTCG — lower, 1.069 ± 0.0046
- AACGAAAAGT — lower, 0.996 ± 0.012
- AACGAATTAC — higher, 1.79 ± 0.16
- AACGAGGCAG — lower, 1.21 ± 0.038
- AACGATGTAA — lower, 0.9951 ± 0.0059
- AACGATTGGC — lower, 1.08 ± 0.018
- AACGCACGTT — lower, 1.28 ± 0.02
- AACGCGTGGT — lower, 1.01 ± 0.02
- AACGCTATGT — lower, 1.05 ± 0.023
- AACGCTGAGG — lower, 1.01 ± 0.009
- AACGCTTATT — lower, 1.09 ± 0.064
- AACGGACAGG — lower, 1.27 ± 0.049
- AACGGGAAGA — lower, 1.02 ± 0.028
- AACGGGAGAC — higher, 2.52 ± 0.24
- AACGGGCCCG — lower, 1 ± 0.04
- AACGGGCGGG — lower, 1.15 ± 0.014
- AACGGGCTGG — lower, 0.996 ± 0.04
- AACGGGGGCT — lower, 0.9778 ± 0.006
- AACGGGGGGG — lower, 1.05 ± 0.037
- AACGGGGGTC — lower, 1 ± 0.043
- AACGGGGGTG — lower, 1.01 ± 0.045
- AACGGGGTGG — lower, 0.976 ± 0.044
- AACGGGTCTG — lower, 1.01 ± 0.039
- AACGGGTTAC — lower, 1.14 ± 0.019
- AACGGTAATT — lower, 1.1 ± 0.034
- AACGGTACGG — lower, 1.03 ± 0.045
- AACGGTATTC — lower, 1.07 ± 0.043
- AACGGTTTCC — lower, 1.02 ± 0.038
- AACGTACAGG — within error, 1.65 ± 0.15
- AACGTACTGG — within error, 1.52 ± 0.095
- AACGTAGGAC — lower, 1.1 ± 0.014
- AACGTTCGCG — lower, 1.03 ± 0.032
- AACGTTGGGG — lower, 0.967 ± 0.017
- AACGTTTGCG — lower, 0.986 ± 0.017
- AACGTTTGTT — lower, 1.14 ± 0.23
- AACTAGGAGG — lower, 0.983 ± 0.012
- AACTAGGATA — lower, 1.01 ± 0.02
- AACTATTATG — lower, 1.003 ± 0.01
- AACTATTGAA — lower, 1.003 ± 0.0077
- AACTATTGCG — lower, 0.988 ± 0.019
- AACTATTGTA — lower, 1.01 ± 0.022
- AACTATTTGT — lower, 0.978 ± 0.015
- AACTGAGTAG — lower, 1.01 ± 0.015
- AACTGTTCTG — lower, 1.01 ± 0.014
- AACTGTTGGT — lower, 0.978 ± 0.025
- AACTTAAATT — lower, 1.01 ± 0.021
- AACTTATGTC — lower, 0.9738 ± 0.0069
- AACTTCAGGC — lower, 1.05 ± 0.041
- AACTTCCGCA — lower, 1.29 ± 0.038
- AACTTGAGAA — lower, 1.01 ± 0.012
- AACTTGATAT — lower, 0.9835 ± 0.0019
- AACTTGGACC — lower, 1.05 ± 0.035
- AACTTTAGTA — lower, 1 ± 0.016
- AACTTTTATT — lower, 1.01 ± 0.015
- AACTTTTCTA — lower, 0.976 ± 0.017
- AACTTTTTTT — lower, 0.98236 ± 0.00064
- AAGAAAAATT — lower, 0.9725 ± 0.0048
- AAGAAACGGG — lower, 1.025 ± 0.008
- AAGAAAGACT — lower, 1.02 ± 0.013
- AAGAAATTAA — lower, 1.01 ± 0.045
- AAGAAATTTT — lower, 0.984 ± 0.012
- AAGAAGAGGA — lower, 1 ± 0.011
- AAGAAGATTT — lower, 1 ± 0.012
- AAGAATGACT — lower, 0.977 ± 0.014
- AAGAATTGTG — lower, 0.992 ± 0.032
- AAGAATTTTG — lower, 0.999 ± 0.027
- AAGACACAGA — lower, 1.06 ± 0.035
- AAGACCGGCA — lower, 1.01 ± 0.038
- AAGAGAACGG — lower, 1.04 ± 0.091
- AAGAGAAGCC — lower, 1.02 ± 0.078
- AAGAGAGGGA — lower, 0.981 ± 0.041
- AAGAGAGGGG — lower, 1.02 ± 0.029
- AAGAGATATG — lower, 1.02 ± 0.059
- AAGAGATTTT — lower, 0.986 ± 0.012
- AAGAGGATG — lower, 0.977 ± 0.023
- AAGAGGCATG — lower, 0.971 ± 0.07
- AAGAGGCCGG — lower, 0.986 ± 0.031
- AAGAGGGGTA — lower, 0.999 ± 0.018
- AAGAGGGTGG — lower, 0.997 ± 0.02
- AAGAGGGTTT — lower, 1.01 ± 0.05
- AAGAGGTCAG — lower, 1.033 ± 0.0016
- AAGAGTAGGA — lower, 0.989 ± 0.0099
- AAGAGTATAA — lower, 0.985 ± 0.04
- AAGAGTCTTT — lower, 1.01 ± 0.017
- AAGAGTGGGA — lower, 1.03 ± 0.011
- AAGAGTGGTG — lower, 0.988 ± 0.015
- AAGATCACTG — lower, 1.06 ± 0.068
- AAGATCGGGG — lower, 0.972 ± 0.049
- AAGATGAGGT — lower, 1.01 ± 0.021
- AAGATGCTTC — lower, 1 ± 0.011
- AAGATGGGGT — lower, 0.991 ± 0.017
- AAGATGTAGT — lower, 0.994 ± 0.017
- AAGATGTATT — lower, 0.9561 ± 0.0015
- AAGATTAGGT — lower, 1 ± 0.059
- AAGATTTCGT — lower, 1 ± 0.044
- AAGCACCGGG — lower, 1.08 ± 0.085
- AAGCACTAGG — lower, 1.1916 ± 0.0011
- AAGCAGGGGG — lower, 0.995 ± 0.018
- AAGCAGGTGG — lower, 1.052 ± 0.0096
- AAGCATCTAC — higher, 2.08 ± 0.32
- AAGCATTTGT — lower, 0.9976 ± 0.0089
- AAGCCAAATG — lower, 0.994 ± 0.029
- AAGCCAAGAG — lower, 1.05 ± 0.027
- AAGCCAGCTC — lower, 1.02 ± 0.037
- AAGCCGAGGG — lower, 1.017 ± 0.0022
- AAGCCGATCT — lower, 0.974 ± 0.046
- AAGCCGGGAT — lower, 1.02 ± 0.016
- AAGCCTGAGG — lower, 1.015 ± 0.0084
- AAGCCTTTTT — lower, 1.01 ± 0.019
- AAGCGAGCCG — lower, 1.02 ± 0.091
- AAGCGAGGTT — lower, 0.991 ± 0.021
- AAGCGCATTT — lower, 1.05 ± 0.029
- AAGCGGGTCG — lower, 1.03 ± 0.049
- AAGCGGTTCG — lower, 0.98939 ± 0.0009
- AAGCGGTTTT — lower, 1 ± 0.019
- AAGCGTGAGG — lower, 1.04 ± 0.047
- AAGCGTGTGG — lower, 1 ± 0.036
- AAGCTAATGT — lower, 1.061 ± 0.0089
- AAGCTACTGG — lower, 1.0513 ± 0.00024
- AAGCTCTTGA — lower, 1 ± 0.04
- AAGCTGGTGT — lower, 1.014 ± 0.0075
- AAGCTGTGCA — lower, 0.99 ± 0.038
- AAGCTGTTAT — lower, 1.16 ± 0.29
- AAGCTTCTGT — lower, 1.023 ± 0.0057
- AAGCTTTCGG — lower, 1.03 ± 0.016
- AAGGAAAGAT — lower, 0.975 ± 0.04
- AAGGAAATGG — lower, 1.01 ± 0.035
- AAGGACAAGA — lower, 1.02 ± 0.00092
- AAGGACATTA — lower, 1.042 ± 0.0014
- AAGGACCGGC — lower, 0.991 ± 0.057
- AAGGAGAGCT — lower, 1.01 ± 0.054
- AAGGAGAGGG — lower, 1 ± 0.096
- AAGGAGGATG — lower, 0.995 ± 0.042
- AAGGAGGCAC — lower, 0.985 ± 0.021
- AAGGAGGCAG — lower, 1.03 ± 0.045
- AAGGAGGGCA — lower, 0.984 ± 0.016
- AAGGATAATG — lower, 0.976 ± 0.019
- AAGGATATCT — lower, 0.988 ± 0.022
- AAGGATGTGG — lower, 0.977 ± 0.021
